This note sets out measurements from patent US20060045884A1 (BOARD OF REGENTS, published 2006).

The target in the first assay is T1, HLA-A2.1 heavy chain with I125-labeled β2-microglobulin (heterotrimer dissociation assay) (human, I^125-labeled).
T1 construct: The complex is isolated by HPLC gel filtration; T1/2 is the half-time of β2m dissociation from the complex that holds the tested peptide; also called heterotrimer complex of the HLA-A2.1 heavy chain, peptide, and β2-microglobulin
The assay is described as follows: dissociation of 125I-β2-microglobulin from the HLA-A2.1/peptide/β2m heterotrimer, HPLC gel filtration.
Molecule RLFPDFFTRV (Synthetic peptide) [PR2 peptide (proteinase 3 derived)] had a T1/2 of 2.33 h. Still for that read-out and setting: in the case of VLQELNVTV (Synthetic peptide, at least 95% pure) [PR1 peptide (proteinase 3 aa 169-177)] it was 24.3 h.

Another assay deals with T2, HLA-A2.1 (HLA-A*0201) with β2-microglobulin on the surface of T2 cells (human).
T2 construct: also called surface HLA-A2.1 on T2
Briefly: peptide-binding assay, HLA-A2 stabilisation on T2 cells; reference peptide PR1.
For ILLDWLMEV (also called cyclin E1 peptide) [CCNE1144-152 (cyclin E1 derived nonameric peptide)], the “FI ratio to PR1 (stabilisation of HLA-A2 on T2 cells)” value turned out to be 1.01 ratio. Still for that read-out and setting: in the case of ILLDWLLEV (also called cyclin E2 peptide) [CCNE2144-152 (cyclin E2 derived nonameric peptide)] it was 1.19 ratio.

Another assay concerns the target T2, HLA-A2.1 (HLA-A*0201) with …. Briefly: T2 cell HLA-A2.1 stabilisation, flow cytometry (FIG. 34). On the technique in general: In flow cytometry, cells or beads pass a laser one at a time.
SLWRRPFNV [MY1 peptide (myeloperoxidase derived)]: the binding result is “binds”.

Consider RLFEQVMRI [MY4 peptide (myeloperoxidase derived)], for which the binding result is “binds”. Take KLLLALAGL [MY2 peptide (myeloperoxidase derived)]: the binding result was “binds”.

Turning to LLSYFKQPV [MY3 peptide (myeloperoxidase derived)], the binding result was “binds”. With LIQPFMFRL [MY5 peptide (myeloperoxidase derived)], the binding result is listed as “binds”.

The target in a further assay is T1, HLA-A2.1 heavy chain with I125-labeled …. The assay is described as follows: 125I-β2-microglobulin dissociation from the heterotrimer, gel filtration. (In general: SEC sorts molecules by how far they enter the pores of the column.)
Take SLWRRPFNV [MY1 peptide (myeloperoxidase derived)]: the binding result was “binds”. As to RLFEQVMRI [MY4 peptide (myeloperoxidase derived)], the binding result is listed as “binds”. As for KLLLALAGL [MY2 peptide (myeloperoxidase derived)], the binding result is reported as “binds”. Take LLSYFKQPV [MY3 peptide (myeloperoxidase derived)]: the binding result is given as “binds”. Same read-out and setting: in the case of LIQPFMFRL [MY5 peptide (myeloperoxidase derived)] it was “binds”.
